Source: patent US20210163584A1 (Sanofi, published 2021)

B1: mAb1 (mouse IgG1 anti-TGFβ monoclonal antibody, R&D Systems Clone #1D11) (antibody)
heavy: HVQLQQSGPELVRPGASVKLSCKASGYIFITYWMNWVKQRPGQGLEWIGQIFPASGSTNYNEMFEGKATLTVDTSSSTAYMQLSSLTSEDSAVYYCARGDGNYALDAMDYWGQGTSVTVSSAKTTPPSVYPLAPGSAAQTNSMVTLGCLVKGYFPEPVTVTWNSGSLSSGVHTFPAVLQSDLYTLSSSVTVPSSTWPSQTVTCNVAHPASSTKVDKKIVPRDCGCKPCICTVPEVSSVFIFPPKPKDVLTITLTPKVTCVVVDISKDDPEVQFSWFVDDVEVHTAQTKPREEQFNSTFRSVSELPIMHQDWLNGKEFKCRVNSAAFPAPIEKTISKTKGRPKAPQVYTIPPPKEQMAKDKVSLTCMITDFFPEDITVEWQWNGQPAENYKNTQPIMDTDGSYFVYSKLNVQKSNWEAGNTFTCSVLHEGLHNHHTEKSLSHSPGK
light: NIVLTQSPASLAVSLGQRATISCRASESVDSYGNSFMHWYQQKSGQPPKLLIYLASNLESGVPARFSGSGSRTDFTLTIDPVEADDAATYYCQQNNEDPLTFGAGTKLELKRADAAPTVSIFPPSSEQLTSGGASVVCFLNNFYPKDINVKWKIDGSERQNGVLNSWTDQDSKDSTYSMSSTLTLTKDEYERHNSYTCEATHKTSTSPIVKSFNRNEC
notes: Mouse IgG1, pan-specific anti-TGFβ; bought antibody used as control; also called unmodified mAb; mAb1 control
B2: mAb1 control conjugate (PAR=0) (antibody, mouse IgG1, kappa)
heavy: B1 heavy
light: B1 light
modifications: hinge disulfides reduced; D10-maleimide peptide omitted; thiols blocked with N-ethylmaleimide
B3: mAb1-D10 conjugate (PAR=9) (antibody, mouse IgG1, kappa)
heavy: B1 heavy
light: B1 light
modifications: Ac-D10-C2-PEG12-C6-maleimide possibly on a light chain cysteine; Ac-D10-C2-PEG12-C6-maleimide on reduced hinge region cysteines; average 9 peptides per antibody (heavy and light chains together)
B4: mAb1-D10 conjugate (PAR=5) (antibody, mouse IgG1, kappa)
heavy: B1 heavy
light: B1 light
modifications: Ac-D10-C2-PEG12-C6-maleimide on reduced hinge region cysteines; average 5 peptides per antibody
B5: mAb1 F16 (antibody, mouse IgG1, kappa)
heavy: DDDDDDDDDDHVQLQQSGPELVRPGASVKLSCKASGYIFITYWMNWVKQRPGQGLEWIGQIFPASGSTNYNEMFEGKATLTVDTSSSTAYMQLSSLTSEDSAVYYCARGDGNYALDAMDYWGQGTSVTVSSAKTTPPSVYPLAPGSAAQTNSMVTLGCLVKGYFPEPVTVTWNSGSLSSGVHTFPAVLQSDLYTLSSSVTVPSSTWPSQTVTCNVAHPASSTKVDKKIVPRDCGCKPCICTVPEVSSVFIFPPKPKDVLTITLTPKVTCVVVDISKDDPEVQFSWFVDDVEVHTAQTKPREEQFNSTFRSVSELPIMHQDWLNGKEFKCRVNSAAFPAPIEKTISKTKGRPKAPQVYTIPPPKEQMAKDKVSLTCMITDFFPEDITVEWQWNGQPAENYKNTQPIMDTDGSYFVYSKLNVQKSNWEAGNTFTCSVLHEGLHNHHTEKSLSHSPGKDDDDDDDDDD
light: B1 light
notes: Mouse IgG1 fusion variant, PAR 4; also called D10-HC-D10: WT-LC
B6: mAb1 F11 (antibody, mouse IgG1, kappa)
heavy: DDDDDDDDDDHVQLQQSGPELVRPGASVKLSCKASGYIFITYWMNWVKQRPGQGLEWIGQIFPASGSTNYNEMFEGKATLTVDTSSSTAYMQLSSLTSEDSAVYYCARGDGNYALDAMDYWGQGTSVTVSSAKTTPPSVYPLAPGSAAQTNSMVTLGCLVKGYFPEPVTVTWNSGSLSSGVHTFPAVLQSDLYTLSSSVTVPSSTWPSQTVTCNVAHPASSTKVDKKIVPRDCGCKPCICTVPEVSSVFIFPPKPKDVLTITLTPKVTCVVVDISKDDPEVQFSWFVDDVEVHTAQTKPREEQFNSTFRSVSELPIMHQDWLNGKEFKCRVNSAAFPAPIEKTISKTKGRPKAPQVYTIPPPKEQMAKDKVSLTCMITDFFPEDITVEWQWNGQPAENYKNTQPIMDTDGSYFVYSKLNVQKSNWEAGNTFTCSVLHEGLHNHHTEKSLSHSPGK
light: B1 light
notes: Mouse IgG1 fusion variant, PAR 2; also called D10-HC: WT-LC
B7: mAb1 F12 (antibody, mouse IgG1, kappa)
heavy: B6 heavy
light: DDDDDDDDDDNIVLTQSPASLAVSLGQRATISCRASESVDSYGNSFMHWYQQKSGQPPKLLIYLASNLESGVPARFSGSGSRTDFTLTIDPVEADDAATYYCQQNNEDPLTFGAGTKLELKRADAAPTVSIFPPSSEQLTSGGASVVCFLNNFYPKDINVKWKIDGSERQNGVLNSWTDQDSKDSTYSMSSTLTLTKDEYERHNSYTCEATHKTSTSPIVKSFNRNEC
notes: Mouse IgG1 fusion variant, PAR 4; also called D10-HC: D10-LC
B8: mAb1 F17 (antibody, mouse IgG1, kappa)
heavy: B5 heavy
light: B7 light
notes: Mouse IgG1 fusion variant, PAR 6; also called D10-HC-D10: D10-LC

Molecular target: T1, TGF-β1 (UniProt P01137 279-390)
Test: cell-based or functional assay

T1 sequence (P01137 279-390 limits assumed): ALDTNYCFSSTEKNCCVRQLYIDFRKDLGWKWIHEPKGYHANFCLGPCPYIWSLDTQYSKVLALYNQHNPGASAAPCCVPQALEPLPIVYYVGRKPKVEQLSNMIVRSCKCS

Binder	IC50 (read off the curve); IL-11 release by A549 cells in response to TGF-β1 [nM]
B1	~0.2

Molecular target: T1, TGF-β1
Test: cell-based or functional assay
Remark: another data set of the same source

Binder	half-maximal inhibition of IL-11 release (EC50), A549 cells [nM]
B2	~0.1
B3	~0.1
B4	~0.1
B1	~0.1

Molecular target: T1, TGF-β1
Test: SPR (Biacore); amine-coupled TGF-β1 on chip, antibody as analyte, kinetic fit
Description: Recombinant mAb1-D10 fusion variants of Example 7 were also quantitatively assessed for TGF-β1 binding using surface plasmon resonance (SPR) as detected by Biacore. Samples containing purified variants were passed over a sensor chip with amine-coupled TGF-β1 to determine the equilibrium constant, KD. A target immobilization level of less than 100 response units (RU) of TGF-β1 was chosen to minimize the potential for avidity effects arising from binding adjacent TGF-β1 molecules on the chip. The level of immobilization was determined by the change in response units after NHS/EDC activation of the chip surface, but before quenching with ethanolamine. The fusion variants, WT fusion variant F1, and mAb1 control were diluted to 30, 10, 3, 1 and 0.37 nM in HBS-EP buffer and passed over the TGF-β1 chip at 30 μL/min for 3 min, followed by 5 min dissociation in the same buffer. Between runs, the chip surface was regenerated to remove any bound antibody by passing two 30 sec injections of 40 mM HCl over the chip at a flow rate of 75 μL/min. […] Unexpectedly, the maximum signal (RU) elicited by the fusion variants decreased with increasing number of peptides, with variant F17 (D10-HC-D10/D10-LC, PAR=6) showing the lowest signal. […] A possible explanation of this decline may reflect electrostatic repulsion between the chip matrix (carboxymethyl dextran) and the negatively charged D10 peptides.

Binder	Kd [nM]	koff [s⁻¹]	kon [M⁻¹ s⁻¹]
B5	6.88	0.0011	159000
B6	5.62	0.00092	164000
B1	6	0.001	167000
B7	5.41	0.00093	171000
B8	4.15	0.00079	191000

Molecular target: T1, TGF-β1
Test: cell-based or functional assay
Remark: another data set of the same source

Binder	IC50 (read off the curve); IL-11 release by A549 cells in response to TGF-β1 [nM]
B2	~0.05
B3	~0.04
B4	~0.06
B1	~0.2

Molecular target: T1, TGF-β1
Test: cell-based or functional assay
Remark: another data set of the same source

Binder	IC50 (read off the curve); IL-11 release by A549 cells in response to TGF-β1 [nM]
B5	~0.02
B6	~0.07
B1	~0.1
B7	~0.03
B8	~0.02
